Laboratory results taken from publication PMC11843475, “Taming interleukin‐12: Engineering of bispecific antibody‐based IL‐12 mimetics with biased agonism capacities” (Protein Science : A Publication of the Protein Society, 2025).

Target: T1, recombinant human (rh) His-tagged IL-12Rβ1 ECD (human, UniProt P42701 24-545)
T1 construct: Interleukin-12 receptor subunit beta-1, human, extracellular domain; Loaded on anti-Penta His (HIS1K) biosensors through its His tag; also called (rh) IL-12Rβ1; IL-12 receptor subunit β1; source: bought: Acro Biosystems (ILB-H52H9)
Assay: BLI; epitope binning / competition: 5 μg/mL His-tagged (rh) IL-12Rβ1 ECD loaded on HIS1K biosensors in PBS; first association 200 nM for 300 s, then second association 200 nM for 300 s with a 100 nM spike of the first molecule; kinetics buffer (PBS + 0.1% Tween-20, 1% BSA); 25°C, 1000 rpm; competition with rh IL-12 analysed in the same combinatorial manner
Settings: both partners purified

B1: recombinant human (rh) IL-12 (complex)
chain 1: RNLPVATPDPGMFPCLHHSQNLLRAVSNMLQKARQTLEFYPCTSEEIDHEDITKDKTSTVEACLPLELTKNESCLNSRETSFITNGSCLASRKTSFMMALCLSSIYEDLKMYQVEFKTMNAKLLMDPKRQIFLDQNMLAVIDELMQALNFNSETVPQKSSLEEPDFYKTKIKLCILLHAFRIRAVTIDRVMSYLNAS
chain 2: IWELKKDVYVVELDWYPDAPGEMVVLTCDTPEEDGITWTLDQSSEVLGSGKTLTIQVKEFGDAGQYTCHKGGEVLSHSLLLLHKKEDGIWSTDILKDQKEPKNKTFLRCEAKNYSGRFTCWWLTTISTDLTFSVKSSRGSSDPQGVTCGAATLSAERVRGDNKEYEYSVECQEDSACPAAEESLPIEVMVDAVHKLKYENYTSSFFIRDIIKPDPPKNLQLKPLKNSRQVEVSWEYPDTWSTPHSYFSLTFCVQVQGKSKREKKDRVFTDKTSATVICRKNASISVRAQDRYYSSSWSEWASVPCS
notes: Interleukin-12 p35 alpha-subunit (IL12A), human; Interleukin-12 p40 beta-subunit (IL12B), human; Heterodimeric cytokine of p35 and p40; also called wild-type IL-12; interleukin-12; source: bought: Acro Biosystems
B1: binds.
